Results taken from publication PMC3656841.

Target: T1, Bacillus subtilis DNA Ligase D (BsuLigD) (B. subtilis) (UniProt O34398)
T1 sequence: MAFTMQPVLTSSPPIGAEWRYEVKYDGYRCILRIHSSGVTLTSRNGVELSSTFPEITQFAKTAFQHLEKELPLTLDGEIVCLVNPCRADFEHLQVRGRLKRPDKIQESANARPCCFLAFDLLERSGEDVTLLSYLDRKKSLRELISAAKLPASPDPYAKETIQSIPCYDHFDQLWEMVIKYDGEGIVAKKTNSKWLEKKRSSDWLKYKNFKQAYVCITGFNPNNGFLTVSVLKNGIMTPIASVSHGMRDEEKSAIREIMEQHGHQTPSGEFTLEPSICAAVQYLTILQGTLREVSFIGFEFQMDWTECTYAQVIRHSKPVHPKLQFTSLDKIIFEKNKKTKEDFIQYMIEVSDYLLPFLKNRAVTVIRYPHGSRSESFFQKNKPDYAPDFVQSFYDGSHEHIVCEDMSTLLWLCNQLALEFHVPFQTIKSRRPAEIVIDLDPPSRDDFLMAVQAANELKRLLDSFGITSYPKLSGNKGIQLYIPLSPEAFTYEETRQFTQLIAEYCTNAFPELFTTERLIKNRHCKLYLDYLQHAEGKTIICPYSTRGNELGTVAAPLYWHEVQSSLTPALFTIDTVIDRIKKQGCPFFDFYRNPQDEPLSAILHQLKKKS

B1: Bacillus subtilis Ku (BsuKu) (natural protein)
chain: MNRTPSLHTKEKKGFIDMHTMWKGSISFGLVNIPIKLYAATEDKDIKLRSLHKEDHAPIKYEKVCTNCEKTLSPDEIVKGYEYVKGKYVVLTDEDLKSLKQEHEEKAVEIVDFVQLQEIDPIYFNRSYFVGPGDNGTKAYTLLREALRSTGKIGIANMTIRSKQQLAILRVYENCIVMESIHYPDEVRSAAQVPGVPDQSNVNDKELQTAITLIDELTAKFEPEKYEDTYRQALLQRVNDKLENKETAVTPDKAPPREDVIDLVSALQASIDRTRRPNRETPAAAPAQAAEPKGAGDKKQKTTRKKASGTS
primer usage by BsuLigD (percentage of extended primers against reaction time) on a gapped molecule, 10 ng BsuLigD, 10 µM NTPs, without or with 40 ng of BsuKu: 3 fold
